According to the supplement of paper PMC7877785:
± gives the uncertainty stated by the source.

Assay: self-splicing fitness, log relative to wild type (ln ratio); higher = more splicing; Tetrahymena group I intron in knt gene, E. coli kanamycin selection, DiMSum; sequences stand for … in CUCUCU…GGAGGGAAAAGUUAUCAGGCAUGCACCUGGUAGCUAGUCUUUAAACCAAUAGAUUGCAUCGGUUUAAAAGGCAAGACCGUCAAAUUGCGGGAAAGGGGUCAACAGCCGUUCAGUACCAAGUCUCAGGGGAAACUUUGAGAUGGCCUUGCAAAGGGUAUGGUAAUAAGCUGACGGACAUGGUCCUAACCACGCAGCCAAGUCCUAAGUCAACAGAUCUUCUGUUGAUAUGGAUGCAGUUCACAGACUAAAUGUCGGUCGGGGAAGAUGUAUUCUUCUCAUAAGAUAUAGUCGGACCUCUCCUUAAUGGGAGCUAGCGGAUGAAGUGAUGCAACACUGGAGCCGCUGGGAACUAAUUUGUAUGCGAAAGUAUAUUGAUUAGUUUUGGAGUACUCGUGGUCG
In short: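 DiMSum derived fitness as the error-weighted combination of fold changes across replicates, kanamycin versus no kanamycin, normalised to wild type. E. coli BL21(DE3) held the library, which randomised all eight P1ex-region intron nucleotides within the knt kanamycin-resistance gene on pET-22b(+). Six replicate transformations grew overnight at 37°C or 30°C on LB agar with or without 25 μg/mL kanamycin, also containing 100 μg/mL carbenicillin, 50 μM IPTG and 0.2% rhamnose, and pooled colonies were amplicon-sequenced on an Illumina HiSeq 2500.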

Sequence	self-splicing fitness (ln) (30 °C)	self-splicing fitness (ln) (37 °C)
ACGAAGCAAUAUUACGCAUG	-1.79 ± 0.062	-0.62 ± 0.083
ACGAAGCAAUAUUACGCCAA	-2.55 ± 0.31	-1.98 ± 0.23
ACGAAGCAAUAUUACGCCUG	-0.445 ± 0.095	0.217 ± 0.12
ACGAAGCAAUAUUACGCGCC	-0.967 ± 0.1	0.356 ± 0.14
ACGAAGCAAUAUUACGCGGU	-3.65 ± 0.18	-1.48 ± 0.1
ACGAAGCAAUAUUACGGAGA	-2.86 ± 0.2	-2.42 ± 0.22
ACGAAGCAAUAUUACGGAUU	-1.86 ± 0.087	-1.67 ± 0.11
ACGAAGCAAUAUUACGGCGC	-0.589 ± 0.086	-0.278 ± 0.12
ACGAAGCAAUAUUACGGGCG	-1.15 ± 0.072	-0.126 ± 0.1
ACGAAGCAAUAUUACGUAGU	-3.12 ± 0.12	-2.13 ± 0.17
ACGAAGCAAUAUUACGUAUC	-4.38 ± 0.27	-2.66 ± 0.22
ACGAAGCAAUAUUACGUCGG	-1.67 ± 0.1	-1.65 ± 0.11
ACGAAGCAAUAUUACGUGUU	-2.94 ± 0.07	-1.81 ± 0.07
ACGAAGCAAUAUUACGUUAA	-3.25 ± 0.22	-2.09 ± 0.14
ACGAAGCAAUAUUACGUUCG	-1.3 ± 0.083	-0.906 ± 0.11
ACGAAGCAAUAUUACGUUGU	-2.95 ± 0.14	-1.86 ± 0.12
ACGCAGCAAUAUUACGACUC	-0.833 ± 0.08	0.365 ± 0.096
ACGCAGCAAUAUUACGAGGU	-3.55 ± 0.17	-2.27 ± 0.16
ACGCAGCAAUAUUACGAUGG	-1.82 ± 0.097	-1.59 ± 0.13
ACGCAGCAAUAUUACGCAAG	-2.25 ± 0.081	-0.638 ± 0.091
ACGCAGCAAUAUUACGCACU	-0.177 ± 0.08	0.479 ± 0.11
ACGCAGCAAUAUUACGCAGA	-2.74 ± 0.18	-1.92 ± 0.12
ACGCAGCAAUAUUACGCAUC	-2.1 ± 0.11	-1.47 ± 0.16
ACGCAGCAAUAUUACGCCUG	-2.79 ± 0.2	-2.42 ± 0.33

Sequence	self-splicing fitness (ln) (30 °C)	self-splicing fitness (ln) (37 °C)
ACGCAGCAAUAUUACGCGCC	-2.5 ± 0.15	-3.01 ± 0.27
ACGCAGCAAUAUUACGCUAG	-3.42 ± 0.22	-2.33 ± 0.24
ACGCAGCAAUAUUACGCUGA	-0.604 ± 0.095	-0.835 ± 0.11
ACGCAGCAAUAUUACGCUGG	-2.25 ± 0.12	-1.48 ± 0.14
ACGCAGCAAUAUUACGCUGU	-2.71 ± 0.14	-3.83 ± 0.28
ACGCAGCAAUAUUACGGCGU	-3.68 ± 0.16	-2.23 ± 0.14
ACGCAGCAAUAUUACGGGGA	-2.28 ± 0.091	-2.14 ± 0.1
ACGCAGCAAUAUUACGGGGU	-4.68 ± 0.22	-2.34 ± 0.12
ACGCAGCAAUAUUACGUACA	-2.03 ± 0.11	-0.547 ± 0.12
ACGCAGCAAUAUUACGUAGG	-2.12 ± 0.096	-2.86 ± 0.13
ACGCAGCAAUAUUACGUGCC	-1.7 ± 0.11	-0.959 ± 0.12
ACGCAGCAAUAUUACGUGGG	-3.55 ± 0.13	-2.37 ± 0.12
ACGCAGCAAUAUUACGUGUG	-2.86 ± 0.11	-2.31 ± 0.12
ACGCAGCAAUAUUACGUGUU	-4.19 ± 0.1	-2.85 ± 0.14
ACGCAGCAAUAUUACGUUCA	-1.96 ± 0.11	-0.844 ± 0.094
ACGCAGCAAUAUUACGUUGG	-2.94 ± 0.082	-1.91 ± 0.096
ACGGAGCAAUAUUACGAGCU	-3.64 ± 0.46	-2.24 ± 0.32
ACGGAGCAAUAUUACGAGUC	-3.83 ± 0.33	-2.64 ± 0.38
ACGGAGCAAUAUUACGCAUC	-2.6 ± 0.17	-2.03 ± 0.21
ACGGAGCAAUAUUACGCCGG	-1.09 ± 0.38	–
ACGGAGCAAUAUUACGCGCG	-2 ± 0.15	-0.429 ± 0.14
ACGGAGCAAUAUUACGCGGC	-3.42 ± 0.44	–
ACGGAGCAAUAUUACGCUCC	–	-1.28 ± 0.37
ACGGAGCAAUAUUACGGAGU	-2.53 ± 0.27	-1.55 ± 0.18

Sequence	self-splicing fitness (ln) (30 °C)	self-splicing fitness (ln) (37 °C)
ACGGAGCAAUAUUACGGAUC	-3.09 ± 0.17	-2.79 ± 0.26
ACGGAGCAAUAUUACGGCGC	0.159 ± 0.44	-0.221 ± 0.45
ACGGAGCAAUAUUACGGCUC	-3.6 ± 0.3	-2.87 ± 0.48
ACGGAGCAAUAUUACGGGUU	-3.25 ± 0.16	-3.6 ± 0.3
ACGGAGCAAUAUUACGGUAG	–	-2.33 ± 0.31
ACGGAGCAAUAUUACGGUCC	-3.38 ± 0.36	-1.39 ± 0.34
ACGGAGCAAUAUUACGGUUG	-3.93 ± 0.31	-2.22 ± 0.18
ACGGAGCAAUAUUACGUCAG	-3.38 ± 0.19	-1.69 ± 0.18
ACGGAGCAAUAUUACGUCCU	-1.85 ± 0.13	-1.27 ± 0.15
ACGGAGCAAUAUUACGUCGA	-2.03 ± 0.38	-2.07 ± 0.28
ACGGAGCAAUAUUACGUCUA	-3.96 ± 0.46	-1.3 ± 0.16
ACGGAGCAAUAUUACGUCUG	-1.94 ± 0.19	0.013 ± 0.14
ACGGAGCAAUAUUACGUGAC	-2.68 ± 0.28	-2.16 ± 0.42
ACGGAGCAAUAUUACGUUAU	–	-2.94 ± 0.23
ACGUAGCAAUAUUACGAAGA	-2.85 ± 0.41	-0.644 ± 0.16
ACGUAGCAAUAUUACGACGC	-0.35 ± 0.25	-0.563 ± 0.3
ACGUAGCAAUAUUACGAGGG	-3.91 ± 0.26	-2.92 ± 0.26
ACGUAGCAAUAUUACGAGUC	-3.3 ± 0.4	-3.2 ± 0.35
ACGUAGCAAUAUUACGCCAA	-2.3 ± 0.38	-1.5 ± 0.37
ACGUAGCAAUAUUACGCGUG	-1.73 ± 0.094	-0.962 ± 0.11
ACGUAGCAAUAUUACGCUAG	-2.85 ± 0.12	-0.713 ± 0.13
ACGUAGCAAUAUUACGCUCC	-2.71 ± 0.36	-0.259 ± 0.22
ACGUAGCAAUAUUACGGAGC	-3.42 ± 0.22	-2.39 ± 0.26
ACGUAGCAAUAUUACGGGCA	-0.955 ± 0.099	-0.418 ± 0.12

Sequence	self-splicing fitness (ln) (30 °C)	self-splicing fitness (ln) (37 °C)
ACGUAGCAAUAUUACGGGGA	-1.93 ± 0.1	-1.83 ± 0.099
ACGUAGCAAUAUUACGUGAU	-3.19 ± 0.14	-1.63 ± 0.12
ACGUAGCAAUAUUACGUGGC	-2.94 ± 0.17	-2.98 ± 0.26
ACGUAGCAAUAUUACGUUAU	-3.76 ± 0.17	-2.34 ± 0.16
ACGUAGCAAUAUUACGUUCG	-2.69 ± 0.12	-0.757 ± 0.12
ACGUAGCAAUAUUACGUUUC	-4.47 ± 0.25	-2.87 ± 0.19
ACGUAGCAAUAUUACGUUUU	-2.63 ± 0.12	-1.15 ± 0.12
ACUAAGCAAUAUUACGAAAA	-2.26 ± 0.33	-1.72 ± 0.36
ACUAAGCAAUAUUACGAAGC	-3.67 ± 0.21	-3.25 ± 0.22
ACUAAGCAAUAUUACGAAGG	-1.51 ± 0.087	-0.966 ± 0.12
ACUAAGCAAUAUUACGACAG	-0.663 ± 0.085	-0.322 ± 0.11
ACUAAGCAAUAUUACGACGC	-0.258 ± 0.11	-0.0244 ± 0.12
ACUAAGCAAUAUUACGAGAU	-3 ± 0.15	-2.45 ± 0.2
ACUAAGCAAUAUUACGAGCG	-0.928 ± 0.084	0.115 ± 0.14
ACUAAGCAAUAUUACGAGGC	-3.03 ± 0.23	-2.48 ± 0.25
ACUAAGCAAUAUUACGCAAU	-2.04 ± 0.076	-1.65 ± 0.086
ACUAAGCAAUAUUACGCACG	-1.68 ± 0.1	-0.457 ± 0.13
ACUAAGCAAUAUUACGCGCU	-0.324 ± 0.093	0.362 ± 0.13
ACUAAGCAAUAUUACGCGGU	-2.65 ± 0.14	-2.59 ± 0.21
ACUAAGCAAUAUUACGCUAC	-3.94 ± 0.23	-1.08 ± 0.18
ACUAAGCAAUAUUACGCUAU	-1.88 ± 0.072	-1.84 ± 0.1
ACUAAGCAAUAUUACGGAAU	-1.97 ± 0.1	-2.04 ± 0.16
ACUAAGCAAUAUUACGGAUA	-2.38 ± 0.16	-2.54 ± 0.2
ACUAAGCAAUAUUACGGAUU	-2.79 ± 0.14	-1.1 ± 0.11
